Measurements as given in the supplement of paper PMC7125110.
± gives the standard error. Fewer inactive variants are shown than the library holds.

B1: glmS ribozyme (parent)
chain: AUAAAAGCGCCAGAACUACAGAAAUGUAGUUGACGAGGAGGAGGUUUAUCGAAUUUUCGGCGGAUGCCUCCAAA

Experiments:
Details in all cases: with glucosamine-6-phosphate
glucosamine-6-phosphate [1] = variants of: B1; assay: self-cleavage kobs at 640 uM GlcN6P; higher = faster cleavage; RNA array
Procedure, shortened: (§1)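 Tracking of barcoded ribozyme variants used a hybridised Cy3 probe at 37 °C, after in situ transcription by E. coli RNA polymerase on sequenced MiSeq chips. The flowed solution held 40 μM to 10 mM glucosamine-6-phosphate in HEPES/KCl/Mg(OAc)2 buffer, and imaging ran over ~14 h. kobs was taken from exponential decay fits of normalised per-tile medians, and kcat and KM from weighted Michaelis–Menten fits.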

glucosamine-6-phosphate [2] = variants of: B1; assay: self-cleavage kobs at 2500 uM GlcN6P; higher = faster cleavage; RNA array
Procedure, shortened: as §1

glucosamine-6-phosphate [3] = variants of: B1; assay: self-cleavage kobs at 10000 uM GlcN6P; higher = faster cleavage; RNA array
Procedure, shortened: as §1

Variant	self-cleavage kobs at 640 uM GlcN6P (glucosamine-6-phosphate [1])	self-cleavage kobs at 2500 uM GlcN6P (glucosamine-6-phosphate [2])	self-cleavage kobs at 10000 uM GlcN6P (glucosamine-6-phosphate [3])
A33C G35A G41A	< 1e-05 s⁻¹	< 1e-05 s⁻¹	
G29A G32U U56A	8.76e-05 ± 2.8e-05 s⁻¹	0.000464 ± 0.00011 s⁻¹	
U30A A33C G40A C71U	< 1e-05 s⁻¹		
U30C G32C U55A	8.42e-05 ± 1.7e-05 s⁻¹	0.000128 ± 3.1e-05 s⁻¹	
G21U U69G	6.25e-05 ± 1.4e-05 s⁻¹	9.89e-05 ± 2e-05 s⁻¹	
G35A G37U C58A C70A	0.000632 ± 0.00016 s⁻¹		
U30A G40U G60C C61A	< 1e-05 s⁻¹	< 1e-05 s⁻¹	
A33C A48C C71A	< 1e-05 s⁻¹	< 1e-05 s⁻¹	
G29C A42G G43U G51C G62C	< 1e-05 s⁻¹		
U30C G38U U57C A64G	< 1e-05 s⁻¹		
G32C A33G A42U U45G U57C A64C C71A	< 1e-05 s⁻¹	< 1e-05 s⁻¹	
A33C G38A U47G	< 1e-05 s⁻¹	< 1e-05 s⁻¹	
G29C G51A C67G C68G U69G	5.75e-05 ± 2.7e-05 s⁻¹		
U31G G44A C68U	< 1e-05 s⁻¹		
G29U C58A C68A	0.000121 ± 3.2e-05 s⁻¹	3.43e-05 ± 1.5e-05 s⁻¹	
G35C G40A G43U	< 1e-05 s⁻¹	< 1e-05 s⁻¹	

Variant	self-cleavage kobs at 640 uM GlcN6P (glucosamine-6-phosphate [1])	self-cleavage kobs at 2500 uM GlcN6P (glucosamine-6-phosphate [2])	self-cleavage kobs at 10000 uM GlcN6P (glucosamine-6-phosphate [3])
U30A A36U C70G	0.000179 ± 6.1e-05 s⁻¹	0.000108 ± 4.4e-05 s⁻¹	3.78e-05 ± 1.7e-05 s⁻¹
U31A A33G U49C C58G	< 1e-05 s⁻¹		
G29U A42G G62C	< 1e-05 s⁻¹		
G35U G40A A52U	< 1e-05 s⁻¹	< 1e-05 s⁻¹	
G26U G60A C68A	9.37e-05 ± 4.6e-05 s⁻¹		
U30G U54A C67G	0.000105 ± 2.2e-05 s⁻¹		
U30G A42G G66A C71A	0.00018 ± 5.9e-05 s⁻¹	0.000159 ± 4.2e-05 s⁻¹	
G32U C50U C61U	< 1e-05 s⁻¹	< 1e-05 s⁻¹	
G32U C34A G44A C68A	< 1e-05 s⁻¹	< 1e-05 s⁻¹	
G32C U45G G60A C68G	< 1e-05 s⁻¹	< 1e-05 s⁻¹	
G35U A39U U45G U46C	< 1e-05 s⁻¹	< 1e-05 s⁻¹	
G29U A33U G44A	< 1e-05 s⁻¹	< 1e-05 s⁻¹	
U30G A48U U65A U69G C70U	4.35e-05 ± 2e-05 s⁻¹		
G35A U46G A48G C68A C71U	< 1e-05 s⁻¹	< 1e-05 s⁻¹	
U31C G35C C50U	< 1e-05 s⁻¹	< 1e-05 s⁻¹	
